Laboratory results reported in article PMC3404464 (ACS medicinal chemistry letters, 2012).

Tests used:
[1] = molecular target: lytic transglycosylase MltB of Escherichia coli (Escherichia coli, UniProt P41052); assay: MltB binding by intrinsic tryptophan/tyrosine fluorescence; details: excitation 280 nm
[2] = tested on: CC(=O)N[C@H]1[C@H](O[C@H]2[C@H](O[C@H](C)C(=O)N[C@@H](C)C(=O)N[C@H](CCC(=O)N[C@@H](CCC[C@@H](N)C(=O)O)C(=O)N[C@H](C)C(=O)N[C@H](C)C(=O)O)C(=O)O)[C@@H](NC(C)=O)[C@@H]3OC[C@H]2O3)O[C@H](CO)[C@@H](O)[C@@H]1O; assay: Turnover of synthetic substrates by NagZ; assay type: biochemical, Pseudomonas aeruginosa; details: other: substrate hydrolysis by NagZ
[3] = tested on: CO[C@@H]1O[C@H](CO)[C@@H](O[C@@H]2O[C@H](CO)[C@@H](O)[C@H](O)[C@H]2NC(C)=O)[C@H](O[C@H](C)C(=O)N[C@@H](C)C(=O)N[C@H](CCC(=O)N[C@@H](CCC[C@@H](N)C(=O)O)C(=O)N[C@H](C)C(=O)N[C@H](C)C(=O)O)C(=O)O)[C@H]1NC(C)=O; assay: Turnover of synthetic substrates by NagZ; assay type: biochemical, Pseudomonas aeruginosa; details: other: substrate hydrolysis by NagZ

Chain of lytic transglycosylase MltB of Escherichia coli (P41052 19-361): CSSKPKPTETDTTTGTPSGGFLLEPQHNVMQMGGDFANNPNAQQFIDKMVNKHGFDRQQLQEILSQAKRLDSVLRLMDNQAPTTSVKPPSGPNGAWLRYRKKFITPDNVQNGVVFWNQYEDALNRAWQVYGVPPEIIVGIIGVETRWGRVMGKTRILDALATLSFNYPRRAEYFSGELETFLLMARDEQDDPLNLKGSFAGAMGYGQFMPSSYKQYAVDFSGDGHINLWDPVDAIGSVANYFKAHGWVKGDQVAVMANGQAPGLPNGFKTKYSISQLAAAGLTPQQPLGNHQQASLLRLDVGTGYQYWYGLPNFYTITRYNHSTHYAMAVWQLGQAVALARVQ

| Compound | kns (non-saturable, presumably non-specific binding mode) [1] [µM⁻¹] | Km [2] [µM] | kcat [2] [s⁻¹] | kcat/Km [2] | Km [3] [µM] | kcat [3] [s⁻¹] | kcat/Km [3] |
| --- | --- | --- | --- | --- | --- | --- | --- |
| CC(=O)N[C@H]1CN[C@H](CO)[C@@H](O)[C@@H]1O[C@H](C)C(=O)O.Cl [compound 4] | 0.060 ± 0.006 | – | – | – | – | – | – |
| NagZ of P. aeruginosa (Pseudomonas aeruginosa PAO1) | – | 104 ± 2 | 6.6 ± 0.2 | 6.3 ± 0.2 × 10^4 M^−1s^−1 | 165 ± 36 | 0.77 ± 0.04 | (0.5 ± 0.1) × 10^4 M^−1s^−1 |
| CC(=O)N[C@H]1CN[C@H](CO)[C@@H](O)[C@@H]1O.Cl [compound 3, 2-acetamido-1,2-dideoxynojirimycin] | 0.128 ± 0.004 | – | – | – | – | – | – |
